± gives the standard error. Fewer inactive variants are shown than the library holds.
B1: glmS ribozyme (parent)
chain: AUAAAAGCGCCAGAACUACAGAAAUGUAGUUGACGAGGAGGAGGUUUAUCGAAUUUUCGGCGGAUGCCUCCAAA

Assays:
Details in all cases: with glucosamine-6-phosphate
glucosamine-6-phosphate [1] = variants of: B1; experiment: self-cleavage kobs at 40 uM GlcN6P; higher = faster cleavage; RNA array
Procedure, shortened: (§1)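 Barcoded glmS ribozyme variants on sequenced MiSeq chips were transcribed in situ by E. coli RNA polymerase and tracked through a hybridised Cy3 probe at 37 °C. Glucosamine-6-phosphate (40 μM to 10 mM) in HEPES/KCl/Mg(OAc)2 buffer was flowed in, and tiles were imaged over ~14 h. Signals were normalised to baseline and to non-cleaving reference variants; per-tile medians were fit to one- or two-exponential decays to give kobs. kcat and KM came from weighted Michaelis–Menten fits across concentrations.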

glucosamine-6-phosphate [2] = variants of: B1; experiment: self-cleavage kobs at 160 uM GlcN6P; higher = faster cleavage; RNA array
Procedure, shortened: as §1

glucosamine-6-phosphate [3] = variants of: B1; experiment: self-cleavage kobs at 640 uM GlcN6P; higher = faster cleavage; RNA array
Procedure, shortened: as §1

glucosamine-6-phosphate [4] = variants of: B1; experiment: self-cleavage kobs at 2500 uM GlcN6P; higher = faster cleavage; RNA array
Procedure, shortened: as §1

glucosamine-6-phosphate [5] = variants of: B1; experiment: self-cleavage kobs at 10000 uM GlcN6P; higher = faster cleavage; RNA array
Procedure, shortened: as §1

Variant	self-cleavage kobs at 40 uM GlcN6P (glucosamine-6-phosphate [1]) [s⁻¹]	self-cleavage kobs at 160 uM GlcN6P (glucosamine-6-phosphate [2]) [s⁻¹]	self-cleavage kobs at 640 uM GlcN6P (glucosamine-6-phosphate [3]) [s⁻¹]	self-cleavage kobs at 2500 uM GlcN6P (glucosamine-6-phosphate [4]) [s⁻¹]	self-cleavage kobs at 10000 uM GlcN6P (glucosamine-6-phosphate [5]) [s⁻¹]
A42C U49A	< 1e-05	< 1e-05	< 1e-05	< 1e-05	
G44C C68A	< 1e-05	< 1e-05	< 1e-05	< 1e-05	< 1e-05
U45A C70U	0.00112 ± 0.00012	0.00187 ± 0.00068	0.00199 ± 0.00047	0.0203 ± 0.0092	0.0102 ± 0.0018
G43C U57A C70G	< 1e-05		< 1e-05	< 1e-05	
G41C U65G	< 1e-05	< 1e-05	< 1e-05		
U45A U55A A64G	0.00112 ± 0.00022		0.00335 ± 0.0011	0.00972 ± 0.0028	0.0175 ± 0.0056
A42C G51C	< 1e-05	< 1e-05	< 1e-05		< 1e-05
A42C G51U	< 1e-05	< 1e-05	< 1e-05		< 1e-05
G44A U46G U69G	< 1e-05				< 1e-05
A42C U45A C67A	< 1e-05				
G41U C68U C71A	< 1e-05				
G44C G51A A53C	< 1e-05				< 1e-05
G43C G44U C58U	< 1e-05			< 1e-05	
G44U C58G C68U	< 1e-05	< 1e-05	< 1e-05	< 1e-05	< 1e-05
A42C G62U	< 1e-05		< 1e-05	< 1e-05	< 1e-05
G41U U57G	< 1e-05	< 1e-05	< 1e-05		
G40U U56C G59C	< 1e-05				< 1e-05
G44C C61U	< 1e-05	< 1e-05	< 1e-05	< 1e-05	< 1e-05
G41A A52G G59A	< 1e-05	< 1e-05	< 1e-05		
A42U G60C C67A	< 1e-05				< 1e-05
G41U A64U	< 1e-05		< 1e-05		
G43C	< 1e-05	< 1e-05	< 1e-05	< 1e-05	

Variant	self-cleavage kobs at 40 uM GlcN6P (glucosamine-6-phosphate [1]) [s⁻¹]	self-cleavage kobs at 160 uM GlcN6P (glucosamine-6-phosphate [2]) [s⁻¹]	self-cleavage kobs at 640 uM GlcN6P (glucosamine-6-phosphate [3]) [s⁻¹]	self-cleavage kobs at 2500 uM GlcN6P (glucosamine-6-phosphate [4]) [s⁻¹]	self-cleavage kobs at 10000 uM GlcN6P (glucosamine-6-phosphate [5]) [s⁻¹]
G44C C71A	< 1e-05	< 1e-05	< 1e-05		
G44C C71G	< 1e-05	< 1e-05	< 1e-05	< 1e-05	< 1e-05
G41C G63C	< 1e-05		< 1e-05	< 1e-05	< 1e-05
G44A C71A	< 1e-05	< 1e-05	< 1e-05	< 1e-05	
G43C A48U C50U C58A C67U	< 1e-05		< 1e-05		
G40C G43A	< 1e-05				< 1e-05
G40C G43C	< 1e-05	< 1e-05		< 1e-05	< 1e-05
A42G C67G	0.000618 ± 0.00013	0.00112 ± 0.00024	0.00232 ± 0.00045	0.00814 ± 0.0014	0.0123 ± 0.0031
G41A U49A	< 1e-05	< 1e-05			< 1e-05
A42U G51C	< 1e-05	< 1e-05	< 1e-05		
U45A G60U C68G C70U	< 1e-05				
G41U G60U A64U	< 1e-05	< 1e-05			< 1e-05
G44C U69G	< 1e-05			< 1e-05	< 1e-05
U45G A64U	< 1e-05	< 1e-05			9.64e-05 ± 1.8e-05
G40C U56A G62C	< 1e-05			< 1e-05	
U45G C58U	< 1e-05	< 1e-05			
U45C U69G C71U	< 1e-05				
G41U A42G G44A A48G	< 1e-05		< 1e-05		
G41A G62A	< 1e-05	< 1e-05	< 1e-05		< 1e-05
G41U C50U G59U G66U	< 1e-05				
G43C A53G	< 1e-05	< 1e-05	< 1e-05		
G40C G44A	< 1e-05	< 1e-05	< 1e-05	< 1e-05	

Variant	self-cleavage kobs at 40 uM GlcN6P (glucosamine-6-phosphate [1]) [s⁻¹]	self-cleavage kobs at 160 uM GlcN6P (glucosamine-6-phosphate [2]) [s⁻¹]	self-cleavage kobs at 640 uM GlcN6P (glucosamine-6-phosphate [3]) [s⁻¹]	self-cleavage kobs at 2500 uM GlcN6P (glucosamine-6-phosphate [4]) [s⁻¹]	self-cleavage kobs at 10000 uM GlcN6P (glucosamine-6-phosphate [5]) [s⁻¹]
G40C C68U	< 1e-05				1.72e-05 ± 7.9e-06
G41C U47C C68U	< 1e-05		< 1e-05		
A42C G60U	< 1e-05			< 1e-05	< 1e-05
U45G G63U	< 1e-05	< 1e-05	< 1e-05	< 1e-05	< 1e-05
A42G G60U C68G	< 1e-05		< 1e-05		
G44U A48U	< 1e-05	< 1e-05	< 1e-05	< 1e-05	
G43U U47A	< 1e-05				
G43U G44U	< 1e-05	< 1e-05	< 1e-05	< 1e-05	< 1e-05
G41C C61G	< 1e-05	< 1e-05	< 1e-05	< 1e-05	
G43C G59C	< 1e-05	< 1e-05	< 1e-05	< 1e-05	< 1e-05
G43A C58A	< 1e-05	< 1e-05	< 1e-05	< 1e-05	< 1e-05
G43U C70G	< 1e-05	< 1e-05	< 1e-05	< 1e-05	< 1e-05
G40U G51A	< 1e-05		< 1e-05	< 1e-05	< 1e-05
G43C G66A	< 1e-05				
G44A U47A C71A	< 1e-05		< 1e-05	< 1e-05	< 1e-05
G40U U56G G62C C67G	< 1e-05				
G44A C70A	< 1e-05	< 1e-05		< 1e-05	< 1e-05
G44A G60A	< 1e-05	< 1e-05	< 1e-05	< 1e-05	< 1e-05
G44U U57C	< 1e-05		< 1e-05	< 1e-05	< 1e-05
G44C A48C	< 1e-05	< 1e-05		< 1e-05	< 1e-05
G41C G43A U46G C68A C70U	< 1e-05				
U45C U55C	5.77e-05 ± 1.3e-05			0.00199 ± 0.00054	0.00272 ± 0.00037

Variant	self-cleavage kobs at 40 uM GlcN6P (glucosamine-6-phosphate [1]) [s⁻¹]	self-cleavage kobs at 160 uM GlcN6P (glucosamine-6-phosphate [2]) [s⁻¹]	self-cleavage kobs at 640 uM GlcN6P (glucosamine-6-phosphate [3]) [s⁻¹]	self-cleavage kobs at 2500 uM GlcN6P (glucosamine-6-phosphate [4]) [s⁻¹]	self-cleavage kobs at 10000 uM GlcN6P (glucosamine-6-phosphate [5]) [s⁻¹]
G40C C58G C67U	< 1e-05				
U46A A48U U57A G60U C67U C68A	< 1e-05			< 1e-05	
G40C A48C A52U	< 1e-05		< 1e-05	< 1e-05	
G43U U46A U47G C70G	< 1e-05		< 1e-05	< 1e-05	< 1e-05
U45G C50U A53U	< 1e-05				
G41A G60A G62U C70A	< 1e-05				
G40C A42C	< 1e-05	< 1e-05	< 1e-05	< 1e-05	< 1e-05
A42G G63A	< 1e-05	< 1e-05	< 1e-05	< 1e-05	< 1e-05
A42U U54C U55C	< 1e-05			5.79e-05 ± 1.6e-05	8.78e-05 ± 1.3e-05
G40C C61A	< 1e-05			< 1e-05	
G41A U49C U56A	< 1e-05				
U45G A52C	< 1e-05				
G43A G59C	< 1e-05	< 1e-05	< 1e-05		< 1e-05
U45C G60C	< 1e-05	< 1e-05	< 1e-05	< 1e-05	< 1e-05
G41U G60U	< 1e-05	< 1e-05	< 1e-05		< 1e-05
A42G U55G G62C	< 1e-05	< 1e-05		< 1e-05	< 1e-05
G41U U46G G59C	< 1e-05		< 1e-05	< 1e-05	< 1e-05
G41A G51C	< 1e-05	< 1e-05	< 1e-05		
G41A C61U	< 1e-05	< 1e-05	< 1e-05		< 1e-05
U45G A48U C71G	< 1e-05				
G41C G44U G66U	< 1e-05			< 1e-05	< 1e-05
